Data set [1] is classed as physicochemical. As for the experimental part:
Two hundred microliters of 0.1M Phosphate Buffer Saline (PBS, filtered, pH=7.4) was added to a 1 mL conical reaction vial. To this vial, a small amount of sample was added slowly until saturation is observed. Periodically, the solution was vortexed. […] After centrifugation, 10 μL of the sample was removed from the supernatant and diluted in 490 μL buffer (0.1 M PBS). This diluted sample was analyzed via HPLC to determine its' concentration.

The test system of data set [2] is chymotrypsin enzyme. Put plainly: In vitro enzyme resistance (chymotrypsin) of HIM2 and its complexes. The settings on record: chymotrypsin digest, 37° C., pH about 7.4.
Description: Lyophilized chymotrypsin enzyme was resuspended in 1 mM HCl to a concentration of 7.53 U/mL. A 1.53 mL aliquot of each sample was added to sample tubes and 0.850 mL into control tubes. Samples were tested in duplicate along with four control tubes per sample. […] Then 17 μL of chymotrypsin enzyme was added to each sample tube. Five μL of 1 mM HCl was added to each control tube. Immediately following the additions, 200 μL was removed from the sample and the control tubes and placed into 50 μL of 1% TFA previously aliquoted out into centrifuge tubes. This sample serves as T=0.
(§1) The control procedure was repeated at the following intervals: 0, 8, 15, 30 minutes. For T-type and R-type samples, the procedure was repeated at the following intervals: 0, 5, 8, 12, 30, 40 and 60 minutes. The control procedure for the Zn complexes was repeated at the following intervals: 0, 12, 40 and 60 minutes. Samples were stored at −20° C. until analysis can occur via HPLC. HPLC was performed to determine percent degradation relative to the respective T=0 minute for each digest. The natural log of the percent remaining was plotted versus time and a linear regression run for each digest. The half life was calculated using the equation: t=−0.693/slope.
The subject of data set [3] is male CF-1 mice. Briefly: Extended Mouse Blood Glucose Assay (MBGA). Particulars: subcutaneous. The class given is in vivo. As for the experimental part:
Six paired-dose groups of 5 male CF-1 mice (Charles River Laboratories; 25-30 g) received subcutaneous injections of either the insulin compound conjugate (test article) or recombinant human insulin. The test article was reconstituted with phosphate buffer (0.01 M, a pH of about 7.4) containing 0.1% w/w bovine serum albumin and dosed at 100, 66.6, 43.3, 30, 20, and 13.3 μg/kg. Insulin compound was reconstituted with phosphate buffer (0.01 M, a pH of about 7.4) containing 0.1% w/w bovine serum albumin and dosed at 50, 33.3, 21.7, 15, 10, and 6.7 μg/kg. […] Blood samples were collected in heparin tubes for glucose assay. If glucose assay was delayed, the tubes were stored in ice water and re-warmed to room temperature before assay.
Plasma glucose was measured with a glucometer (e.g., One Touch® Basic; Lifescan), which was calibrated at the beginning of each day of use according to the manufacturer's instructions. The potency of the insulin compound conjugate was then calculated relative to the standard curve that was generated for the recombinant human insulin response. Calculations were based upon the assumption that recombinant human insulin has a potency of 27.4 IU/mg.

For data set [4], the system named is chymotrypsin enzyme.
Description: Lyophilized chymotrypsin enzyme was resuspended in 1 mM HCl to a concentration of ˜7.53 U/mL. A 1.53 mL aliquot of each sample was added to sample tubes and 0.850 mL into control tubes. Samples were tested in duplicate along with four control tubes per sample. […] Then 17 μL of chymotrypsin enzyme was added to each sample tube. Five μL of 1 mM HCl was added to each control tube. Immediately following the additions, 200 μL was removed from the sample and the control tubes and placed into 50 μL of 1% TFA previously aliquoted out into centrifuge tubes. This sample serves as T=0.
as §1

Like-named read-outs stand apart in the source and are kept apart here.

Experimental findings from patent US9102758B2, “Insulin-oligomer conjugates, formulations and uses thereof” (priority 2004, dated 2015) are described below.

Turning to “Reaction 9.5.1: T-Type Zn Complex of IN105 Monoconjugate (10 g/L Concentration)”, the “Solubility (mg/mL) in a pH of about 7.4, 0.1M phosphate buffer” value in data set [1] is listed as 80-85 mg/mL. With “HIM2 (T-type zinc complex): T-type zinc complex of HIM2, 0.55% w/w zinc”, in data set [2] (0.3 mg/mL protein), the T half was 12 to 15 min.

“HIM2 (R-type zinc complex): R-type zinc complex of HIM2, 1.1% w/w zinc”: in data set [2] (0.3 mg/mL protein), the T half was in the range of 19 to 21 min.

Regarding “Reaction 9.6.2: R-Type Zn Complex of IN105 Conjugate at 5 g Scale”, the Solubility (commonly how much of the substance goes into solution per volume) in data set [1] is 10 to 25 mg/mL. With “HIM2: human insulin monoconjugate with a modifying moiety coupled at B29”, the “biopotency (MBGA) on complexation with Zn++” value in data set [3] (plasma glucose 30 minutes post dose, relative to recombinant human insulin) is “not significantly reduced”. Take “HIM2 (R-type zinc/protamine complex): R-type zinc complex of HIM2 with protamine”: the “glucose lowering effect at 30 and 90 minutes post dose” value in data set [3] is recorded as “greater glucose reduction at 30 minutes than 90 minutes”. Further, in data set [2] (0.6 mg/ml protein), the T half was 95 to 120 min. On to “Reaction 9.5.2: T-Type Zn Complex of IN105 Monoconjugate (1 g Scale)”, for which the “Solubility (mg/mL) in a pH of about 7.4, 0.1M phosphate buffer” value in data set [1] is recorded as 10-20 mg/mL.

In the case of “Reaction 9.3.3: R-type Zn Complex of HIM2 with Protamine at Acidic pH”, in data set [1] (pH 7.4), the “Solubility” value was found to be 36.78 mg/mL. As to “IN105 (T-type zinc complex): T-type Zn complex of IN105, 1.88% w/w zinc; same zinc content as reaction 9.5.3”, in data set [4], the T half amounted to 54.8 min.
